Biological target: Aβ (amyloid beta peptide, length and aggregation state not specified; ˜4 kDa band) (UniProt P05067)
Test: cell-based or functional assay

mitochondrial ROS (MitoSox staining) in brain slices, Tg mAPP/CypD-/- versus Tg mAPP mice: 80%
Substance: mouse CypD, endogenous, in brain mitochondria and cultured cortical neurons of nonTg and Tg mAPP mice (from UniProt Q99KR7 30-206) (enzyme)

Reference: patent US20100291074A1, “CYCLOPHILIN D-AMYLOID BETA INTERACTION POTENTIATES MITOCHONDRIAL DYSFUNCTION IN A TRANSGENIC MOUSE MODEL OF ALZHEIMER'S DISEASE” (COLUMBIA UNIVERSITY IN THE CITY OF NEW YORK, priority 2007, published 2010)
